To fix the notation:
B1: SC34.61 (antibody, mouse IgG1, V domains shown)
VH: EVKLVESGGGLVKPGGSLKLSCAASGFTFTSYTMSWVRQTPAKRLEWVATISTGGGNTYYPDIVKGRFTISRDNARSTLYLQMSSLRSEDSAMYYCARRFYDGSYNYWYFDVWGAGTTVTVSS
VL: DIQMIQSPSSMFASLGDRVSLSCRASQGIRGNLDWYQQKPGGTIKLLIYSTSNLNSGVPSRFSGSGSGSDYSLTISSLESEDFADYYCLQRDAYPYTFGGGTKLEIK
B2: SC34.50 (antibody, mouse IgG2b, V domains shown)
VH: QVQLQQPGAELVRPGASVKLSCKASGYTFTSYWINWVKQRPGQGLEWIGNIFPSDSYTNYNQKFRDKATLTVDKSSSTAYMQLSSPTSEDSAVYYCTIRTYGNYFDYWGQGTTLTVSS
VL: DIQMTQSSSSFSVSLGDRVTITCKASEDIYNRLAWYQQKPGNAPRLLISGATSLETGVPSRFSGSGSGKDYTLSITSLQTEDVATYYCQQYWSTIFTFGSGTKLEIK
B3: SC34.49 (antibody, mouse IgG1, V domains shown)
VH: EVQLQQSGPELVKPGSSVKISCKASGYTFTDYHMNWVKQSHGKSLEWIGNINPYYGVSTYNQNLKGTATLTVDKSSSTAYMELRGLTSEDSAVYYCVRRAMDSPRFAYWGQGTLVTVSA
VL: DIQMTQSSSYLSVSLGGRVTITCKASEHINNWLAWYQQKPGNPPRLLISGATSLETGVPSRFSGSGSGKDYTLSITGLQTEDIATYFCQQYRSTPFTFGSGTKLEIK
B4: hSC34.11 humanized anti-DPEP3 antibody (antibody, human IgG1, kappa, V domains shown)
VH: EVQLVQSGAEVKKPGESLKISCKGSGYSFTNYWMIWVRQMPGKGLEWMGYIDPTTDYTAYNQKFKDQVTISADKSISTAYLQWSSLKASDTAMYYCARGGNVALDFWGQGTLVTVSS
VL: DIQMTQSPSSLSASVGDRVTITCKSSQSLLNSRTRKNYLAWYQQKPGKVPKLLIYWASTRESGVPSRFSGSGSGTDFTLTISSLQPEDVATYYCKESYNLWTFGGGTKVEIKR
notes: Human IgG1/kappa; The order is confirmed for hSC34.2 and hSC34.28
B5: hSC34.87 humanized anti-DPEP3 antibody (antibody, human IgG1, kappa, V domains shown)
VH: QVQLVQSGAEVKKPGASVKVSCKASGYTFTSYWMLWVRQAPGQRLEWMGYIDPRNGYTEYNQKFKDRVTITRDTSASTAYMELSSLRSEDTAVYYCARGGNVAMDYWGQGTLVTVSS
VL: DIVMTQSPDSLAVSLGERATINCKSSQSLLNSRTRKNYLAWYQQKPGQPPKLLIYWASTRESGVPDRFSGSGSGTDFTLTISSLQAEDVAVYYCKQSYNLWTFGGGTKLEIKR
notes: Human IgG1/kappa
B6: hSC34.25 humanized anti-DPEP3 antibody (antibody, human IgG1, kappa, V domains shown)
VH: QVQLVQSGAEVKKPGASVKVSCKASGYTFTSYAISWVRQAPGQRLEWMGEIYPGSGETYYNEKFKGRVTITRDTSASTAYMELSSLRSEDTAVYYCARVNDYGSWFPYWGQGTLVTVSS
VL: DIVMTQSPDSLAVSLGERATINCKSSQSLLYSRYQKNYVAWYQQKPGQPPKLLIYWASTRESGVPDRFSGSGSGTDFTLTISSLQAEDVAVYYCQQYYRYPLTFGQGTKLEIKR
notes: Human IgG1/kappa
B7: hSC34.38 humanized anti-DPEP3 antibody (antibody, human IgG1, kappa, V domains shown)
VH: EVQLVQSGAEVKKPGESLKISCKGSGYSFTSYYMYWVRQMPGKGLEWMGEINPSNGGANFNERFKNQVTISADKSISTAYLQWSSLKASDTAMYYCTRGLLYYDYDRGFAYWGQGTLVTVSS
VL: DVVMTQSPLSLPVTLGQPASISCKSSQSLLYSNRRTYLNWFQQRPGQSPRRLIYLVSKLDSGVPDRFSGSGSGTDFTLKISRVEAEDVGVYYCVQGTHFPFTFGQGTKLEIKR
notes: Human IgG1/kappa
B8: hSC34.28 humanized anti-DPEP3 antibody (antibody, human IgG1, kappa, V domains shown)
VH: QVQLVQSGAEVKKPGSSVKVSCKASGGTFSSYWIEWVRQAPGQGLEWMGEILPGSGNTYYNERFKDRVTITADESTSTAYMELSSLRSEDTAVYYCARRAAAYYSNPEWFAYWGQGTLVTVSS
VL: EIVLTQSPATLSLSPGERATLSCTASSSVNSFYLHWYQQKPGLAPRLLIYSTSNLASGIPDRFSGSGSGTDFTLTISRLEPEDFAVYYCHQYHRSPYTFGQGTKLEIKR
notes: Human IgG1/kappa
B9: hSC34.2 humanized anti-DPEP3 antibody (antibody, human IgG1, kappa, V domains shown)
VH: EVQLVQSGAEVKKPGESLKISCKGSGYSFTDYYINWVRQMPGKGLEWMGWTYPGSGPTKYNGKFRGQVTISADKSISTAYLQWSSLKASDTAMYYCARRGIYYYDGIYPNYFDYWGQGTTVTVSS
VL: DIQMTQSPSSLSASVGDRVTITCSASQGITNYLNWYQQKPGKAPKLLIYYTSRLHSGVPSRFSGSGSGTDFTLTISSLQPEDFATYYCQQYSKLPWTFGQGTKVEIKR
notes: Human IgG1/kappa

T5 sequence (Q9H4A9 33-463): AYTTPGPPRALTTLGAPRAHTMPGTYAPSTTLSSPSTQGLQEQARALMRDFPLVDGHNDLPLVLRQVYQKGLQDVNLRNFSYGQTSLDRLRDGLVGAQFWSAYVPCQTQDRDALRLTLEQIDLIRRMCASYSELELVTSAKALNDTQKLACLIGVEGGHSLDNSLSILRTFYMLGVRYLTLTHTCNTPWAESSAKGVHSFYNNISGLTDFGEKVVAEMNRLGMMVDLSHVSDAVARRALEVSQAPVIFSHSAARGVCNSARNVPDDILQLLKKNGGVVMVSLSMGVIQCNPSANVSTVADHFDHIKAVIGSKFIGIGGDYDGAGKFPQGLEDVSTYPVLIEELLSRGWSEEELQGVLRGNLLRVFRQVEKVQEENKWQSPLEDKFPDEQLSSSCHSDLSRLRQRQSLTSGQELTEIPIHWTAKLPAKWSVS

The target in one test is T1, hDPEP3-ECD-His (human, UniProt Q9H4B8 36-463).
T1 construct: also called hDPEP3-His; monomeric hDPEP3-His antigen; not shown: histidine tag
T1 sequence: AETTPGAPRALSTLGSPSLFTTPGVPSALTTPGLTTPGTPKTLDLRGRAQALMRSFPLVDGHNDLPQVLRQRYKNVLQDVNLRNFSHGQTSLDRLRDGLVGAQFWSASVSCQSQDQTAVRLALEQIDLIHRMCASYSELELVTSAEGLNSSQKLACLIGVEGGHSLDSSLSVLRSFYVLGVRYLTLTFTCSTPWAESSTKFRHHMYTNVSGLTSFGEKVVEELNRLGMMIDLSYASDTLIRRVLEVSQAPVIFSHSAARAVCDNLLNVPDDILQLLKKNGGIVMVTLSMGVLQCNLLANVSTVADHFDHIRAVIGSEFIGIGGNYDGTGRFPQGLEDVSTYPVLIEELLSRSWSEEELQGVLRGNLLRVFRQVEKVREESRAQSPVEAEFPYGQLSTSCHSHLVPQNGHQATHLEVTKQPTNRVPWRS
As to the kind of experiment: BLI ForteBio RED, 200 nM hDPEP3-His, estimated grade. Summed up:
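Antibodies were captured on anti-mouse Fc biosensors to 0.3-1 units, then exposed to hDPEP3-His for a 4 min association and a 3 min dissociation at 1000 rpm. A control mouse IgG response was subtracted, and KD was estimated qualitatively from the curves. Sensors were regenerated with 10 mM glycine, pH 1.7.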
Broadly, the Kd is the concentration at which binding is half-saturated. For B1, the Kd was > 10 nM.

Consider B2, for which the Kd is > 10 nM.

With B3, the Kd was > 10 nM.

In a further test the target is T2, cDPEP3 (Macaca fascicularis, UniProt Q4R7M2).
T2 construct: extracellular domain; also called cynomolgus DPEP3-His; cynomolgus DPEP3 ECD with histidine tag
T2 sequence (single chain, looked up): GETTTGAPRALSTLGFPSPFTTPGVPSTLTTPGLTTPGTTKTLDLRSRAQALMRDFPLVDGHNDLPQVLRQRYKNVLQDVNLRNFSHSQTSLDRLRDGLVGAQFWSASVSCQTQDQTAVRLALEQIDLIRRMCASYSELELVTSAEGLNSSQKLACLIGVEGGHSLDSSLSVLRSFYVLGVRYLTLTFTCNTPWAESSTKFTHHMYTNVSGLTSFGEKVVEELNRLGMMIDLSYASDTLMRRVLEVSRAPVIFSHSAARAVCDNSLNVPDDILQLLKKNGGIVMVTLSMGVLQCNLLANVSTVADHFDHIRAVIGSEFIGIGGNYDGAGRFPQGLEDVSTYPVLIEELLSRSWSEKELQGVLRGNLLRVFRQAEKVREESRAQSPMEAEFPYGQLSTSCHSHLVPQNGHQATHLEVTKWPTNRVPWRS
As to the kind of experiment: ELISA, coated antigen. A general note: An ELISA detects its analyte on a solid surface through an enzyme-linked reagent.
In the case of B1, the binding result is given as “no binding (tested: 1 ug/mL)”.

For the molecule B2, the binding result is recorded as “no binding (tested: 1 ug/mL)”.

B3: the binding result was “no binding (tested: 1 ug/mL)”.

A further test addresses T3, mDPEP3 (limits assumed).
T3 construct: also called mouse DPEP3-His; mouse DPEP3 ECD with histidine tag
T3 single chain: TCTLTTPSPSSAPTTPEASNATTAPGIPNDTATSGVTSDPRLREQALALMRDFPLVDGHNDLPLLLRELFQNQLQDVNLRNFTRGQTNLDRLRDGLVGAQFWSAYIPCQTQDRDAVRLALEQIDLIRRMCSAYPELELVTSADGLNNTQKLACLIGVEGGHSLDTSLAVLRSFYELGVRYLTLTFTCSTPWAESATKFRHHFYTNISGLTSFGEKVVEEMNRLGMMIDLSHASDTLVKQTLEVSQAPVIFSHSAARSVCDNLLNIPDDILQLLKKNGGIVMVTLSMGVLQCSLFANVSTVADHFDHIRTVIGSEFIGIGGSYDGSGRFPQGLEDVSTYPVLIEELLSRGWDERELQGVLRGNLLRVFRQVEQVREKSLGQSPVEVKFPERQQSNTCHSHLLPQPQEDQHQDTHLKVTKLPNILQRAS
As to the kind of experiment: ELISA, coated antigen.
Regarding B1, the binding result was “no binding (tested: 1 ug/mL)”.

Take B2: the binding result was “no binding (tested: 1 ug/mL)”.

Consider B3, for which the binding result is “no binding (tested: 1 ug/mL)”.

The next test concerns the target T4, rat DPEP3 ECD with histidine tag (rat, UniProt Q5U2X4 36-459, limits assumed).
T4 construct: also called rDPEP3-His; ratDPEP3-His; not shown: histidine tag
T4 sequence: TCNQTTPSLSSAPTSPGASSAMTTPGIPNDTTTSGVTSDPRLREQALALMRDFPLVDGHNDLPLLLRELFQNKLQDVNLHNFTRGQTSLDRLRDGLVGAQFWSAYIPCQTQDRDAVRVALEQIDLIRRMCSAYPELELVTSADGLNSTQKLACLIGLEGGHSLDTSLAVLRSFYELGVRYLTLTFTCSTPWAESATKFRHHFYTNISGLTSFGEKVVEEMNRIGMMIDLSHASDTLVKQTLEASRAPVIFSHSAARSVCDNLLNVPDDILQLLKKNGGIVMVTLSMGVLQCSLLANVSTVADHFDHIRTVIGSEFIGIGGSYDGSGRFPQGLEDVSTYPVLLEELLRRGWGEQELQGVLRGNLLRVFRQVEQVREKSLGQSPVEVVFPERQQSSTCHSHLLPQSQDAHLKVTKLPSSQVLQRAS
As to the kind of experiment: ELISA, coated antigen.
As to B1, the binding result is recorded as “no binding (tested: 1 ug/mL)”.

Take B2: the binding result is recorded as “no binding (tested: 1 ug/mL)”.

Regarding B3, the binding result is recorded as “no binding (tested: 1 ug/mL)”.

A further test has as its target T5, hDPEP2 ECD with histidine tag (human, UniProt Q9H4A9 33-463).
T5 construct: also called hDPEP2-His; not shown: histidine tag
The test can be described thus: ELISA, coated antigen.
Take B1: the binding result is “no binding (tested: 1 ug/mL)”.

With B2, the binding result is listed as “no binding (tested: 1 ug/mL)”.

B3: the binding result is recorded as “no binding (tested: 1 ug/mL)”.

The target in the next test is T6, hDPEP1-His (human, UniProt P16444 17-385, limits assumed).
T6 construct: Neither the origin nor the limits of this protein are described; not shown: histidine tag
T6 sequence (looked up): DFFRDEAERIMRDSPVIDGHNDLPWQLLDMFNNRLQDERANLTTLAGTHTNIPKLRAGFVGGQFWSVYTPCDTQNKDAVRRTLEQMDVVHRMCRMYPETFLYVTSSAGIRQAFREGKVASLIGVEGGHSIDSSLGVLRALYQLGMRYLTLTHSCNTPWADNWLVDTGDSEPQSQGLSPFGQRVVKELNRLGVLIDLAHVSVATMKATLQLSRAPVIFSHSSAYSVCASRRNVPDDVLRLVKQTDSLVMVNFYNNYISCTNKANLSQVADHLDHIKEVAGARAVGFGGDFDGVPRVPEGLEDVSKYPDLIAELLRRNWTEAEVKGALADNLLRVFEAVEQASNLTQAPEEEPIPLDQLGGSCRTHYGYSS
As to the kind of experiment: SPR, BIAcore 2000, antibody captured with anti-human capture kit. For orientation: SPR reads the build-up and loss of mass on a sensor chip optically.
B4: the binding result is reported as “no binding”.

As to B5, the binding result was “no binding”.

Regarding B6, the binding result is listed as “no binding”.

With B7, the binding result is reported as “no binding”.

In the case of B8, the binding result is “no binding”.

As for B9, the binding result is recorded as “no binding”.

For a further test, the target named is T4, rat DPEP3 ECD with histidine tag. Described as above.
As for B4, the binding result is recorded as “no binding”.

In the case of B5, the binding result was “no binding”.

As for B6, the binding result is reported as “no binding”.

As for B7, the binding result is “no binding”.

Consider B8, for which the binding result is listed as “no binding”.

Consider B9, for which the binding result was “no binding”.

The values are drawn from patent US20170029530A1 (AbbVie / Abbott, published 2017).
